{"source": "patent US20230041071A1", "about": "(NATIONAL INSTITUTE OF BIOLOGICAL SCIENCES BEIJING, published 2023)", "key": {"[1]": {"biological_target": "T1, mAREG-N164H variant (mouse, UniProt P31955 135-177, limits assumed)", "T1 construct": "Position is in hAREG numbering", "T1 chain": "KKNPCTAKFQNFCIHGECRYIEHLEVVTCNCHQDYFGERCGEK", "assay": "SPR (Biacore T200)"}, "[2]": {"biological_target": "T2, mAREG-EGFd-mFc (mouse, UniProt P31955 135-177)", "T2 construct": "also called EGF domain of mAREG (aa135-177) fused with mFc tag; not shown: mFc tag (Fc fragment of mouse IgG2a as for hAREG-EGFd-mFc)", "T2 chain": "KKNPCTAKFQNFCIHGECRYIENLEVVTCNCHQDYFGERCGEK", "assay": "SPR (Biacore T200)"}, "[3]": {"biological_target": "T3, hAREG-H164N variant (human, UniProt P15514 142-184)", "T3 construct": "also called H164N variant of hAREG-EGFd", "T3 chain": "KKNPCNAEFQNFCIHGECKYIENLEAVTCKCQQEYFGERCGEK", "assay": "SPR (Biacore T200)"}, "[4]": {"biological_target": "T4, hAREG-E149K variant (human, UniProt P15514 142-184)", "T4 construct": "also called E149K variant of hAREG-EGFd", "T4 chain": "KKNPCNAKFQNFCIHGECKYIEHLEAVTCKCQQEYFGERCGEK", "assay": "SPR (Biacore T200)"}, "[5]": {"biological_target": "T5, hAREG-98aa (human, UniProt P15514 101-198)", "T5 construct": "Bought protein", "T5 sequence (looked up)": "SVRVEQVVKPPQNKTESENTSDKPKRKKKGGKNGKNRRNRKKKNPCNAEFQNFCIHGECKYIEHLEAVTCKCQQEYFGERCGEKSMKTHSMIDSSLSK", "assay": "SPR, Biacore T200; mAb captured on anti-human Fc chip, antigen in solution", "protocol": "(§1) To evaluate affinities of different mouse hybridoma mAbs or their humanized and engineered variants, SPR measurement was performed using Biacore T200 instrument. mAbs were captured on anti-human Fc CM5 biosensor chip surface, hAREG-EGFd-mFc, mAREG-EGFd-mFc or hAREG-98aa (purchased from PeproTech, cat #100-55B) in serial dilutions were injected over antibody-bound surface, followed by a dissociation phase. Association rates (Ka) and dissociation rates (Kd) were calculated using the one-to-one Langmuir binding model (BIA Evaluation Software, GE Life Sciences). The equilibrium dissociation constant (KD) was calculated as the ratio kd/ka."}, "[6]": {"biological_target": "T6, hAREG-EGFd-mFc (human; mouse, UniProt P15514 142-184)", "T6 construct": "Expressed in 293F cells; not shown: Fc fragment of mouse IgG2a", "T6 chain": "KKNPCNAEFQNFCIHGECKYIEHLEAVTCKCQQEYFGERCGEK", "assay": "SPR, Biacore T200; mAb captured on anti-human Fc chip, antigen in solution", "protocol": "as §1"}}, "data": [{"binder": "hu9C12v6 (antibody, V domains shown, Humanized 9C12 variant) VH: EVQLVESGGGLVKPGGSLRLSCAASGFTFSSYPMSWVRQAPEKGLEWVSTISTGGTYTYYPDSVKGRFTISRDNAKNSLYLQMNSLRAEDTAVYYCARQGPIYYGNYYYGMDVWGQGTTVTVSS VL: DVVMTQSPLSLPVTLGDPASISCRSSQSLVNQEGETYLHWYQQRPGQSPKLLIYKVSNRFDGVPDRFSGSGSGTDFTLKISRVEAEDVGVYYCSQSTHVPYTFGQGTKLEIK", "values": [{"measurement": "binding result", "setting": "[1]", "value": "binds"}, {"measurement": "binding result", "setting": "[2]", "value": "no binding"}, {"measurement": "binding result", "setting": "[3]", "value": "no binding"}, {"measurement": "binding result", "setting": "[4]", "value": "binds"}, {"measurement": "Kd", "setting": "[5]", "value": 0.188, "unit": "nM"}, {"measurement": "koff", "setting": "[5]", "value": 0.00457, "unit": "s⁻¹"}, {"measurement": "kon", "setting": "[5]", "value": "2.43e+07", "unit": "M⁻¹ s⁻¹"}, {"measurement": "Kd", "setting": "[6]", "value": 0.398, "unit": "nM"}, {"measurement": "koff", "setting": "[6]", "value": 0.000389, "unit": "s⁻¹"}, {"measurement": "kon", "setting": "[6]", "value": 978000, "unit": "M⁻¹ s⁻¹"}]}]}
